Measured values from patent publication US8017326B2, “Methods of modulating cell death based on the Bit-1/AES regulatory pathway” (Sanford-Burnham Medical Research Institute, priority 2002, dated 2011).
Entries after “also recorded” stand apart in the source; their conditions may differ.

Experiments:
[1] = system: CHO cells; experiment: Deletion analysis, cell death by trypan blue exclusion; format: cell-based, Chinese hamster; conditions: 10 μg construct, trypan blue exclusion 48 hours after transfection
Protocol: The amino-terminal portion of Bit1 (residues 16-40) is hydrophobic and can serve as a transmembrane domain or signal peptide sequence. When the hydrophobicity of this portion was reduced by substitution of glycine 22 and glycine 38 by serine, Bit1 apoptotic activity was reduced.
Deletion analysis was performed as follows. The indicated deletion mutants were cloned into vector pEGFP-C1, and 10 μg of each plasmid construct transfected into CHO cells. Cell death was measured by trypan blue exclusion 48 hours after transfection.
To delineate the pro-apoptotic domain of AES, a series of AES deletion mutants was prepared as amino-terminal fusions with GFP in vector pEGFP-C1. Various AES deletion constructs (10 μg) were transfected into CHO cells, and cell death measured by trypan blue exclusion 48 hours after transfection.

[2] = system: Bit1-induced apoptosis in HEK 293 cells; experiment: Extracellular matrix proteins and Bit1-induced apoptosis, trypan blue staining; format: cell-based, human; conditions: HEK 293 cells plated onto coated dishes, 10 μg Bit1 plasmid, 48 hours
Protocol: Several extracellular matrix proteins were assayed for the ability to modulate Bit1-mediated apoptosis. Cells were plated onto bacterial culture dishes pre-coated overnight with fibronectin (Chemicon; Temecula; CA), vitronectin (SIGMA; St. Louis, Mo.) or type I collagen (SIGMA), and transfected and assayed for apoptosis as described above.
To analyze integrin involvement in protecting attached cells against the pro-apoptotic effect of Bit1, Bit1 cell lines expressing either α5β1 or αvβ1 as the main fibronectin receptor were compared. The two cell lines attach equally well to fibronectin but, like cytoplasmically truncated α5β1, αvβ1 fails to protect cells against apoptosis induced by serum deprivation (Zhang et al., supra, 1995; and Matter and Ruoslahti, supra, 2001).
Experiments with extracellular matrix proteins were performed as follows. Cells were plated onto uncoated tissue culture plates or onto bacterial culture plates coated with fibronectin, vitronectin or collagen, and allowed to attach in the presence of serum. The attachment was equal on all of these surfaces. The cells were then transfected with 10 μg of Bit1 expression plasmid; where indicated, cells were treated with a control IgG of unrelated specificity or monoclonal anti-human α5 antibody (Chemicon), both at 10 μg/ml. Cell death was measured by trypan blue staining 48 hours after the transfection.

[3] = system: CHO cells; experiment: Scoring of rounded-up cells expressing GFP as dead cells; format: cell-based, Chinese hamster
Protocol: AES was assayed for pro-apoptotic activity in CHO cells transfected with a green fluorescent protein (GFP)-AES fusion protein. […] However, in HEK 293 cells, which express no detectable Bit1 by immunohistochemistry or Northern analysis, transfection of AES alone was not apoptotic.
Furthermore, apoptosis was measured in cells transfected with Bit1 (5 μg DNA), AES (5 μg DNA) or both (5 μg each). Rounded up cells expressing GFP were scored as dead cells 24 and 48 hours after the transfection.
To determine if TLE1 suppresses apoptosis induced by AES in CHO cells, cells were transfected with GFP-AES or GFP-TLE1 alone, or both. Cell death was assessed by scoring rounded-up cells expressing GFP 48 hours later.

[4] = system: Bit1-induced apoptosis in HEK 293 cells; experiment: Co-transfection of Bit1 with anti-apoptotic proteins; format: cell-based, human; conditions: HEK 293 cells co-transfected with Bit1
Protocol: Co-transfections were performed with cells plated on non-coated dishes transfected with 5 μg Bit1 plasmid alone or together with 10 μg dominant negative (DN) R-Ras, or activated H-Ras plasmid (Zou et al., Proc. Natl. Acad. Sci. USA 96: 13813-13818 (1999)). […] Expression of the transfected proteins was confirmed by immunoblotting. Apoptosis was assayed as described above.

[5] = system: Bcl-2 promoter; experiment: Bcl-2 promoter reporter assay in CHO cells; format: cell-based, Chinese hamster; conditions: CHO cells, 1 μg Bcl-2-luciferase reporter construct, 24 hours in culture
Description: The entire CGI-147 open reading frame encodes a 27-kDa protein with no sequence similarity to other proteins. […] To denote this inhibitory transcriptional activity, the Clone-3 gene was denoted Bit1 for Bcl-2 inhibitor of transcription.

[6] = system: HEK 293T cells; experiment: Percentage of GFP-positive detached cells after transfection; format: cell-based, human; conditions: 48 hours after transfection, GFP fusion construct
Protocol: (§1) To determine if Bit1 and AES are both required for apoptosis induction, HEK 293T, HOP92, and CHO cells were transfected with a GFP (vector), GFP-Bit1, or GFP-AES fusion protein constructs, as indicated in FIG. 3E. The cells were examined 48 hours (HEK 293T and CHO) or 72 hours (HOP92) after transfection, and the percentage of GFP-positive detached cells was measured.

[7] = system: CHO cells; experiment: as above; format: cell-based, Chinese hamster; conditions: 48 hours after transfection, GFP fusion construct
Protocol: as §1

[8] = system: Heat Shock 70 kD protein 1A; experiment: Northern blot of ecdysone-induced Bit1 or AES cell lines; format: cell-based, human; conditions: ecdysone-inducible ECR-293 cell line expressing Bit1 or AES
Protocol: (§2) To determine whether the Bit1/AES pathway can regulate the transcription of genes other than Bcl-2, two stable cell lines were established expressing either-Bit1 or AES under control of an ecdysone-inducible promoter. To detect genes regulated by Bit1 or AES, probes were prepared from the ecdysone-induced cell lines and used to screen microarrays representing 19,000 human cDNAs. […] Down-regulation of HSP-70 and thymosin 4 in cells induced to express Bit1 or AES was confirmed by Northern blot analysis (see FIG. 7).
(§3) Northern blot analysis was performed as follows. Total RNA (10 μg) was electrophoresed on a 1% agarose-formaldehyde gel and transferred to nitrocellulose filters. The filters were hybridized using the same RNA probes as in the microarray experiments in Rapid-hyb buffer and washed according to the manufacturer's instructions (Amersham-Pharmacia).

[9] = system: Thymosin β-4; experiment: as above; format: cell-based, human; conditions: ecdysone-inducible ECR-293 cell line expressing Bit1 or AES
Protocol: as §2, §3

[10] = system: 19,000 human cDNAs; experiment: cDNA microarray analysis of ecdysone-induced Bit1 or AES cell lines; format: cell-based
Protocol: as §2
cDNA microarray analysis was performed as follows. Total RNA was purified 48 hours after treatment with 10 μM ponasterone A (Invitrogen; San Diego, Calif.) from the ecdysone inducible cell line ECR-293-Bit1 or ECR-293-AES according to the manufacturer's instructions (Qiagen; Valencia, Calif.). cDNA probes were generated and hybridized with a microarray containing 19,000 human cDNAs from Microarray Centre at University Health Network, Ontario Cancer institute. cDNAs were labeled with fluorescent dyes (Cy3 or Cy5) using reverse transcription. Arrays were processed and hybridized essentially as described in Iyer et al., Science 283:83-87 (1999). After hybridization, arrays were scanned to measure fluorescence using a ScanArray 4000 scanner (Perkin Elmer; Meriden, Conn.). Raw data files generated by scanner software were imported into ImaGene and Gene Spring for analysis. Experiments were performed in duplicate using color reversals.

B1: AES residues 106-197: AES deletion mutant, amino-terminal fusion with GFP (protein, UniProt Q08117 106-197, looked up, fragment)
chain: GAIERAKQVTAPELNSIIRQQLQAHQLSQLQALALPLTPLPVGLQPPSLPAVSAGTGLLSLSALGSQAHLSKEDKNGHDGDTHQEDDGEKSD
modifications: GFP fusion
notes: AES deletion mutant, amino-terminal fusion with GFP
In the case of B1, the “pro-apoptotic activity of deletion constructs” value [1] is reported as “no apoptotic activity”.

B2: vitronectin: extracellular matrix protein coated on culture dishes (SIGMA) (protein, UniProt P04004 20-478, looked up)
Vitronectin: DQESCKGRCTEGFNVDKKCQCDELCSYYQSCCTDYTAECKPQVTRGDVFTMPEDEYTVYDDGEEKNNATVHEQVGGPSLTSDLQAQSKGNPEQTPVLKPEEEAPAPEVGASKPEGIDSRPETLHPGRPQPPAEEELCSGKPFDAFTDLKNGSLFAFRGQYCYELDEKAVRPGYPKLIRDVWGIEGPIDAAFTRINCQGKTYLFKGSQYWRFEDGVLDPDYPRNISDGFDGIPDNVDAALALPAHSYSGRERVYFFKGKQYWEYQFQHQPSQEECEGSSLSAVFEHFAMMQRDSWEDIFELLFWGRTSAGTRQPQFISRDWHGVPGQVDAAMAGRIYISGMAPRPSLAKKQRFRHRNRKGYRSQRGHSRGRNQNSRRPSRATWLSLFSSEESNLGANNYDDYRMDWLVPATCEPIQSVFFFSGDKYYRVNLRTRRVDTVDPPYPRSIAQYWLGCPAPGHL
For B2, the “protection from Bit1-induced apoptosis” value [2] was “largely protected”.

B3: TLE2: TLE family protein (protein, UniProt Q04725 1-743, looked up)
Transducin-like enhancer …: MYPQGRHPTPLQSGQPFKFSILEICDRIKEEFQFLQAQYHSLKLECEKLASEKTEMQRHYVMYYEMSYGLNIEMHKQAEIVKRLSGICAQIIPFLTQEHQQQVLQAVERAKQVTVGELNSLIGQQLQPLSHHAPPVPLTPRPAGLVGGSATGLLALSGALAAQAQLAAAVKEDRAGVEAEGSRVERAPSRSASPSPPESLVEEERPSGPGGGGKQRADEKEPSGPYESDEDKSDYNLVVDEDQPSEPPSPATTPCGKVPICIPARRDLVDSPASLASSLGSPLPRAKELILNDLPASTPASKSCDSSPPQDASTPGPSSASHLCQLAAKPAPSTDSVALRSPLTLSSPFTTSFSLGSHSTLNGDLSVPSSYVSLHLSPQVSSSVVYGRSPVMAFESHPHLRGSSVSSSLPSIPGGKPAYSFHVSADGQMQPVPFPSDALVGAGIPRHARQLHTLAHGEVVCAVTISGSTQHVYTGGKGCVKVWDVGQPGAKTPVAQLDCLNRDNYIRSCKLLPDGRSLIVGGEASTLSIWDLAAPTPRIKAELTSSAPACYALAVSPDAKVCFSCCSDGNIVVWDLQNQTMVRQFQGHTDGASCIDISDYGTRLWTGGLDNTVRCWDLREGRQLQQHDFSSQIFSLGHCPNQDWLAVGMESSNVEILHVRKPEKYQLHLHESCVLSLKFASCGRWFVSTGKDNLLNAWRTPYGASIFQSKESSSVLSCDISRNNKYIVTGSGDKKATVYEVVY
For B3, the “effect on apoptosis induced by AES” value ([3]; rounded-up GFP cells scored 48 hours later) was “modestly suppresses”.

B4: p35: caspase inhibitor protein, transfected expression construct (protein, UniProt P08160 1-299, looked up)
Early 35 kDa protein: MCVIFPVEIDVSQTIIRDCQVDKQTRELVYINKIMNTQLTKPVLMMFNISGPIRSVTRKNNNLRDRIKSKVDEQFDQLERDYSDQMDGFHDSIKYFKDEHYSVSCQNGSVLKSKFAKILKSHDYTDKKSIEAYEKYCLPKLVDERNDYYVAVCVLKPGFENGSNQVLSFEYNPIGNKVIVPFAHEINDTGLYEYDVVAYVDSVQFDGEQFEEFVQSLILPSSFKNSEKVLYYNEASKNKSMIYKALEFTTESSWGKSEKYNWKIFCNGFIYDKKSKVLYVKLHNVTSALNKNVILNTIK
With B4 the “effect on apoptosis induced by Bit1” value [4] was “little or no effect”.

B5: AES: human AES, 197 residue Groucho/TLE family protein (SEQ ID NO:6) that associates with Bit1 (protein, listed as Homo sapiens)
chain: MMFPQSRHSGSSHLPQQLKFTTSDSCDRIKDEFQLLQAQYHSLKLECDKLASEKSEMQRHYVMYYEMSYGLNIEMHKQAEIVKRLNGICAQVLPYLSQEHQQQVLGAIERAKQVTAPELNSIIRQQLQAHQLSQLQALALPLTPLPVGLQPPSLPAVSAGTGLLSLSALGSQAHLSKEDKNGHDGDTHQEDDGEKSD
For B5, the Bcl-2 promoter activity [5] was “down-regulate”, the “time within which CHO cells receiving GFP-AES died” value ([3]; GFP-AES fusion protein) was at most 48 h and the “effect on viability of 293T cells” value [6] was “no effect on the viability”. For the same molecule, the “apoptosis induction in CHO cells” value [7] was “induced apoptosis”, the “Northern result, suppression of Heat Shock 70 kD protein 1A” value [8] was 3 fold and the “Northern result, suppression of Thymosin β-4” value [9] was 4 fold. For the same molecule, the Bcl-2 expression ([10]; Bit1 and AES stable cell lines) was “not measurably altered”, the “Microarray result: gene induced” value ([10]; at least a two-fold induction, value is the gene) was “DNA replication licensing factor; also recorded: NIK-related kinase 17; also recorded: CMP-N-acetylneuraminic acid” and the “Microarray result: gene suppressed” value ([10]; at least a two-fold suppression, value is the gene) was “Heat shock 70 KD protein 1A; also recorded: Thymosin β-4; also recorded: KCNAB2; also recorded: FLJ10386; also recorded: NET-5; also recorded: SRY-related HMG-box gene 4”.
